# Source: US6906033 (dated 2005)
# Residue numbers refer to the chain shown, from its start. Read-outs that look alike come from different tables or passages of the source.
# T1: human factor Xa (human, UniProt P00742 41-179; P00742 235-488)
# T1 chain 1: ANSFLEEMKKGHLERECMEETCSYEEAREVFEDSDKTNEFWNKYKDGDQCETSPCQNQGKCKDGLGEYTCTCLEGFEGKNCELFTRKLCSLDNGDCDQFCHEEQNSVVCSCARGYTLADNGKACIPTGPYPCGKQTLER
# T1 chain 2: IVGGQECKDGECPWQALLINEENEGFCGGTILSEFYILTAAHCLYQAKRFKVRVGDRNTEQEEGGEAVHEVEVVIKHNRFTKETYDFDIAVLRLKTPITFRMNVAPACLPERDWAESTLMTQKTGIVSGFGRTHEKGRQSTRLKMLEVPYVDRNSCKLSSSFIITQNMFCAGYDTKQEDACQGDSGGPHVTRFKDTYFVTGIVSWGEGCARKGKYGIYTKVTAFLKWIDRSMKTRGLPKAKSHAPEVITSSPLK
# T2: human factor XIIa (human, UniProt P00748 20-615, biotinylated with Biotin Ester (Zymed); sites not stated)
# T2 chain: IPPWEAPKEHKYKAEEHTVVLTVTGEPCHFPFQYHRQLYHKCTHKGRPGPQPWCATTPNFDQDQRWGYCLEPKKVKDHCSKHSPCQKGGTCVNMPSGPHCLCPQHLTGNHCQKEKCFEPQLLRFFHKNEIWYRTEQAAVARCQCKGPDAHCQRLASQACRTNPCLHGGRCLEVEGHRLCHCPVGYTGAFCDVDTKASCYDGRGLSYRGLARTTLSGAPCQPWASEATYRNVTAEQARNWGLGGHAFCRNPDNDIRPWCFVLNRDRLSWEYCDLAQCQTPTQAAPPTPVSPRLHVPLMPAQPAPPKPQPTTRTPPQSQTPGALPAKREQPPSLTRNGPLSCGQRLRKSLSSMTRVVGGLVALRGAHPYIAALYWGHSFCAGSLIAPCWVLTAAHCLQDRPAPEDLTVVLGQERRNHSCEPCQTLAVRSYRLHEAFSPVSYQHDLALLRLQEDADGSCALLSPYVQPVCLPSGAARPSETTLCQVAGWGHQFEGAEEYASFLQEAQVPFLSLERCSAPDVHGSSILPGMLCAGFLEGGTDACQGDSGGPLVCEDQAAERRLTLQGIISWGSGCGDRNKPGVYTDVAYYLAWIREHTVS
# B1: TW116 (protein)
# chain: EVCSEQAETGPCRAMIIRWYFDVTEGKCAPFFYGGCGGNRNNFDTEEYCMAVCGSAI
# B2: TW101 (protein)
# chain: B1 chain with R13K, I17S
# B3: TW124 (protein)
# chain: B1 chain with I17S, R40S
# B4: TW106 (protein)
# chain: B1 chain with M15R, I17S
# B5: TW6163 (protein)
# chain: EVVREVCSEQAETGPCRAMHSRWYFDVTEGKCAPFFYGGCGGNRNNFDTEEYCMAVCGSAI
# B6: TW6141 (protein)
# chain: B5 chain with H20I, G41Q
# B7: TW6181 (protein)
# chain: B5 chain with H20K
# B8: TW6165 (protein)
# chain: B5 chain with M19A, H20I, S21W
# B9: CL006 (protein)
# chain: B5 chain with H20I, R22A
# B10: TW6194 (protein)
# chain: B5 chain with H20I, S21E
# B11: DD100 (protein)
# chain: B5 chain with H20I, G41C
# B12: TW6149 (protein)
# chain: B5 chain with H20I, R44A
# B13: TW6148 (protein)
# chain: B5 chain with H20I, N43A
# B14: TW6158 (protein)
# chain: B5 chain with H20I, G41T
# B15: BG012 (protein)
# chain: B5 chain with H20I, R22T
# B16: BG028 (protein)
# chain: B5 chain with M19L, H20I, S21Y
# B17: TW6182 (protein)
# chain: B5 chain with H20I, S21H
# B18: TW6210 (protein)
# chain: B5 chain with H20I, S21Q
# B19: TW6166 (protein)
# chain: B5 chain with M19A, H20I, S21Y
# B20: TW6172 (protein)
# chain: B5 chain with H20A
# B21: DD102 (protein)
# chain: B5 chain with H20I, S21P
# B22: DD111 (protein)
# chain: B5 chain with M19S, H20I
# Columns and labels:
# Assay in all cases: enzyme inhibition
# human plasma kallikrein [1] = target: T3, human plasma kallikrein (human, UniProt P03952 20-638)
# T3 sequence (P03952 20-638): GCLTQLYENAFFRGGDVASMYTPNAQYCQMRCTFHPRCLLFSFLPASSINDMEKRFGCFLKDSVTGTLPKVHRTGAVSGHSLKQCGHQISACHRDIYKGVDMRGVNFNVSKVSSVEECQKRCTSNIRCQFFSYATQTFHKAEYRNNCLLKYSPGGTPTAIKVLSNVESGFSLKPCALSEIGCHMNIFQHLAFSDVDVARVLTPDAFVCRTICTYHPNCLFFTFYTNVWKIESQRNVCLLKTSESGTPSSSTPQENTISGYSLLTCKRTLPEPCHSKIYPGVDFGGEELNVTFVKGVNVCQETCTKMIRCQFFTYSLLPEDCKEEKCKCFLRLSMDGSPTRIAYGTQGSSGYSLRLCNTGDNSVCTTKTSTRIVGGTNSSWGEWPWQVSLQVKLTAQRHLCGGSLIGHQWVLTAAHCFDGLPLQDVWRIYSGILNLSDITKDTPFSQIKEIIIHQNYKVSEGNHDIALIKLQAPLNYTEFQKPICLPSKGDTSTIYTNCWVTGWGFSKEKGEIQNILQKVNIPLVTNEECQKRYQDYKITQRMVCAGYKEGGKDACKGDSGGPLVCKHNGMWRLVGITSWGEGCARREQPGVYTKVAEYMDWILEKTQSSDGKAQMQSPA
# human factor Xa = target: T1, human factor Xa
# human plasma kallikrein [2] = target: T3, human plasma kallikrein; remark: listed apart in the source
# human plasma kallikrein [3] = target: T3, human plasma kallikrein; remark: listed apart in the source
# human factor XIIa [4] = target: T2, human factor XIIa
# human plasma kallikrein [5] = target: T3, human plasma kallikrein; remark: listed apart in the source
# human factor XIIa [6] = target: T2, human factor XIIa
binder,measurement,setting,value
B1,Ki,human plasma kallikrein [1],145 nM
same,Ki,human factor Xa,806 nM
B2,Ki,human plasma kallikrein [2],2000 nM
B3,Ki,human plasma kallikrein [3],64 nM
B4,Ki,human plasma kallikrein [2],560 nM
B5,Ki,human factor XIIa [4],4530 nM
same,Ki,human plasma kallikrein [1],4.7 nM
same,Ki,human factor Xa,457 nM
B6,Ki,human plasma kallikrein [5],42 nM
B7,Ki,human factor XIIa [4],1510 nM
same,Ki,human plasma kallikrein [1],150 nM
B8,Ki,human factor XIIa [6],206 nM
B9,Ki,human factor XIIa [4],89600 nM
same,Ki,human plasma kallikrein [1],110 nM
same,Ki,human factor Xa,133 nM
B10,Ki,human plasma kallikrein [1],70.8 nM
B11,Ki,human plasma kallikrein [5],15 nM
B12,Ki,human plasma kallikrein [3],54 nM
B13,Ki,human plasma kallikrein [3],40 nM
B14,Ki,human plasma kallikrein [5],29 nM
B15,Ki,human factor XIIa [4],40 nM
same,Ki,human factor Xa,116 nM
B16,Ki,human factor XIIa [6],93.8 nM
B17,Ki,human factor XIIa [4],752 nM
same,Ki,human plasma kallikrein [1],36 nM
B18,Ki,human factor XIIa [4],277 nM
same,Ki,human plasma kallikrein [1],54 nM
B19,Ki,human factor XIIa [6],73 nM
B20,Ki,human plasma kallikrein [1],315 nM
same,Ki,human factor Xa,1460 nM
B21,Ki,human factor XIIa [4],315 nM
same,Ki,human plasma kallikrein [1],16 nM
B22,Ki,human plasma kallikrein [2],5.6 nM
